Laboratory results as given in paper PMC12051055, “Spectroscopy and crystallography define carotenoid oxygenases as a new subclass of mononuclear non-heme Fe^II enzymes” (The Journal of Biological Chemistry, 2025).

Substrate: CC=Cc1ccc(O)c(OC)c1
Experiment: steady-state kinetics of cleavage to vanillin by purified enzyme (apparent Km)
Format: biochemical, Neurospora crassa
Details: Fe(II)
Source text: steady-state kinetics of cleavage to vanillin by purified enzyme (apparent Km) on CAO1 (Neurospora crassa carotenoid oxygenase 1) | wildtype and T151V steady-state kinetics toward isoeugenol

B1: CAO1 (Neurospora crassa carotenoid oxygenase 1) (Neurospora crassa OR74A) (protein)
chain: MAEYVFSDAPKDSHGNGVKDAVPGKQPEELPPAPRYFQGENTAGFMRPVRFEGDITNLEVVGEIPKSIEGTFYRVMPEPHLPSFIPNDPWFNGDGNISGFYFKDGHVDLKQRYVRTEKFVREAEARRSLLGKYRNRYTDLVEFKIRSTANTNIVYWRGQLLALKEDSPPYAMDPETLETFGVYDFDGQLPSLTFTAHPKFDPVTREMVCFGYEAKGDGTRDICYYSFGPDGKIAETVWLVSPVCGMIHDFAVTENFVIFPIIPLVCDVERMKQGGDHWQWDYSIPMYIGVLPRRGAQGSDVKWFEAPHGFAGHVANAFEDDKGHIQLQMAYAKDNVFFWWPDANGKGPRPGEVEAHFANFVLDYQSDKLPLAEPTYLVDDDMEFPRIDDRVATRKHKHTFFCIFDRKPGVTDFEFVMPRAGGGAPMSNGLAHLNHETGDIQRYLPGPRKLTGECIFIPRNSEAAEGDGYVMVLLANYEDMCSELAVLDTKDLTNEVALIKLPVRLRPGLHGNWVDKSDVDGHPAPL
In the case of B1, the Km is reported as 86.26 ± 13.49 µM.
